Assay results published in patent publication US20230349919A1 (Regeneron, published 2023).

Columns and labels:
[1] = target: T1, human IL-4Rα (hIL-4Rα) monomeric protein (human, UniProt P24394 26-232, limits assumed); experiment: barcoded-antigen count on source cell (scRNA-seq)
T1 construct: also called hIL-4Rα antigen; barcoded hIL-4Rα

[2] = target: T1, human IL-4Rα (hIL-4Rα) monomeric protein; experiment: Biacore (SPR); negative log10 of Kd
[3] = target: T1, human IL-4Rα (hIL-4Rα) monomeric protein; experiment: Biacore (SPR)

Row | Binder | REGN560.L15_ab_raw [1] [counts] | negLog10Kd [2] | Kd [3] [nM]
1 | Table 1 Line # 2 antibody (BM_Plasma_cell) (antibody, human IgG4, V domains shown, Cloned with human IgG4/human Igk constants for Kd; barcode counts are of the source cell's own IgG) VH: EVRLVESGGGLVQPGRSLRLSCAASGFTFDDYAMHWVRQAPGRGLEWVSGISWKGDALGYADSVKGRFTISRDNAKNSLYLQMSSLRAEDTALYYCAKDTGSYHYYYGLDVWGQGTTVAVSS VL: DIQMTQSPSSLSASVGDRVTITCRASQGIRTDLGWYQQKPGKAPKRLIYAASNLHGGVPSRFSGTGSGTDFTLTISSLQPEDFATFFCLQHYSYPLTFGGGTKVEIK | 6540 | 6.79 | 161
2 | Table 1 Line # 18 antibody (BM_Plasma_cell) (antibody, human IgG4, V domains shown, Cloned with human IgG4/human Igk constants for Kd; barcode counts are of the source cell's own IgG) VH: EVQLVQSGAEVKKPGESLKISCKGSGYRFTTNWIGWVRQMPGKGLEWMGIIYPDDSDTRYSPSFQGQVTISADKSINTAYLHWNSLKSSDTAIYYCARGANWFDPWGQGTLVTVSS VL: EIVLTQSPGILSLSPGKRATLSCRASQSVSSNFLAWYQQKPGQAPRLLIYGTSSRANGIPDRFSGSGSGTDFTLTISGLEPEDFAEYYCQQYGSSVTFGQGTRLEIK | 2170 | 7.38 | 41.4
3 | Table 1 Line # 40 antibody (SP_Plasma_cell) (antibody, human IgG4, V domains shown, Cloned with human IgG4/human Igk constants for Kd; barcode counts are of the source cell's own IgG) VH: QVQLQESGPGLVKPSETLSLTCTISGGSISTYYWSWIRQPPGKGLEWIGYIYYSGNTNYNPSLKSRVTISVDTSKNQFSLKLNSVTAADTAVYYCARHRGSYVYGMDVWGQGTTVTVSS VL: DIQMTQSPSSLSASLVDRVTITCRASQTISSYLNWYQQKPGKAPKLLIYGASILQSGVPSRFSGSGSGTDFTLTISSLQPEDHAVYFCQQSYSSPTFGGGTKVEIK | 5520 | 6.93 | 118
4 | Table 1 Line # 31 antibody (SP_B_cell) (antibody, human IgG4, V domains shown, Cloned with human IgG4/human Igk constants for Kd; barcode counts are of the source cell's own IgG) VH: EVQLVESGGGLVQPGRSLRLSCAASGFTFDDYAMHWVRQAPGKGLEWVSGISWNSGNIGYADSVKGRFTISRDNANNSLYLQMNSLRAEDTALYYCAKDYSSAWYGYFDYWGQGTLVTVSS VL: not shown | 8520 | 6.88 | 133
5 | Table 1 Line # 4 antibody (BM_Plasma_cell) (antibody, human IgG4, V domains shown, Cloned with human IgG4/human Igk constants for Kd; barcode counts are of the source cell's own IgG) VH: EVQLVESGGGLVQPGRSLRLSCAASGFTFDDFAMHWVRQAPGKGLEWVSGISWNSGSIGYADSVKGRFTISRDNAKNSLYLQMNSLRAEDTALYYCTKDSSSSWYGYFDLWGRGTLVTVSS VL: not shown | 5050 | 6.8 | 158
6 | Table 1 Line # 34 antibody (SP_B_cell) (antibody, human IgG4, V domains shown, Cloned with human IgG4/human Igk constants for Kd; barcode counts are of the source cell's own IgG) VH: EVQLVASGGDLVQPGRSLRLSCAASGFTFDDFGMHWVRQAPGKGLEWVSGISWNGGHMGYAASVKGRFTMSRDNAKNSLYLQMNSLRVEDTALYYCVKEFSSSWYGFFDLWGRGTLVTVSS VL: DIQMTQSPSSLSASVGDRVTITCRASQGLGNSVAWYQQKPGQIPRLLISAAASLQSGVPSRFSGSGSGTDFTLTISSLQPEDVATYYCQNYNSAPRTFGQGTNVEIK | 6890 | 7.47 | 34.2
7 | Table 1 Line # 37 antibody (SP_B_cell) (antibody, human IgG4, V domains shown, Cloned with human IgG4/human Igk constants for Kd; barcode counts are of the source cell's own IgG) VH: QVHLVESGGDVVQPGRSLRLSCAASGFTFSYYGMHWVRQAPFKGLEWVAVIWYDGSNKYYADSVKGRFTITRDNSKNTVYLQMNSLRAEDTAIYYCARWGGFGVTGTHLDYWGQGTLVTVSS VL: DIQLTQSPSLLSASVGDRVTITCWASQDIAGHFAWYQQKPGTVPKLLIYAISTLDSGVPSRFSGSRSGTEFTLTISSLQPEDFATYYCQHLNSYPYTFGQGTKLEIK | 6230 | 6.71 | 197
8 | Table 1 Line # 13 antibody (BM_Plasma_cell) (antibody, human IgG4, V domains shown, Cloned with human IgG4/human Igk constants for Kd; barcode counts are of the source cell's own IgG) VH: EVQLVESGGEMIRPGGSLRLSCAASGFIFDDYGMSWIRQAPGKGLEWVSGINWNGGHTGYSDSVKGRFTISRDNAKNSLYLQMNSLRAEDTALYHCVRDSSSSWYGVFDYWGQGTLVTVSS VL: DIQMTQSPSSLSASVGDRVTITCRASQGISNSLAWYQQKPGTVPKLLIFAASTLLSGIPSRFSGGGSGTDFTLTISSLQPEDVATYYCQNYNSAPRTFGQGTKVEIK | 2930 | 7.24 | 58.2
9 | Table 1 Line # 16 antibody (BM_Plasma_cell) (antibody, human IgG4, V domains shown, Cloned with human IgG4/human Igk constants for Kd; barcode counts are of the source cell's own IgG) VH: EVQLVESGGGLVQPGRSLRLSCAASGFTFDDYGMHWVRQAPGKGLEWVSGISWNSGHIGYADSVKGRFTISRDNAKNSLNLQMNSLRAEDTALYYCAKDISSSWYGYFDLWGRGTLVTVSS VL: DIQMTQSPSSLSASVGDRVTITCRASQGISNFLAWFQQKPGKVPKLLIYAASTLQSGVPSRFSGSGSGTDFTLTISSLQPEDVATYYCQEYNSAPRTFGQGTKVEIK | 2370 | 8.09 | 8.04
10 | Table 1 Line # 7 antibody (BM_Plasma_cell) (antibody, human IgG4, V domains shown, Cloned with human IgG4/human Igk constants for Kd; barcode counts are of the source cell's own IgG) VH: EVQLVESGGGLVQPGRSLRLSCAASGFTFDDYAMHWVRQAPGKGLEWVSGISWNGASIGYADSLKGRFTISRDNAKNSLYLQMNSLRSEDTALFYCARDYSSAWYGYFDYWGQGTLVTVSS VL: DIQMTQSPSSLSASVGDRVTITCRASQDISNYLAWYQQKPGKVPKLLIYAASTLQSGVPSRFSGSGSGTDFTLTISSLQPEDVATYYCQNYNSVPRTFGQGTKVEIK | 4140 | 7.81 | 15.5
11 | Table 1 Line # 11 antibody (BM_Plasma_cell) (antibody, human IgG4, V domains shown, Cloned with human IgG4/human Igk constants for Kd; barcode counts are of the source cell's own IgG) VH: EVQLVESGGGLVQPGRSLRLSCAASGFTFDDYAMHWVRQAPGKGLEWVSGISWNSGSIGYADSVKGRFTISRDNAKNSLYLQMNSLRAEDTALYYCARDYSSAWYGYFDSWGQGTLVTVSS VL: DIQMTQSPSSLSASVGDRVTITCRASQGINNYLAWYQQKPGKIPKLLIFTASTLQSGVPSRFSGSGSGTDFTLTINSLQPEDVATYYCQNYNSVPRTFGQGTKVEIK | 3210 | 7.56 | 27.5
12 | Table 1 Line # 15 antibody (BM_Plasma_cell) (antibody, human IgG4, V domains shown, Cloned with human IgG4/human Igk constants for Kd; barcode counts are of the source cell's own IgG) VH: EVQLVESGGALVQPGRSLRLSCAASGFAFDDYAMHWVRQAPGKGLEWVSGISWNGASLGYADSLKGRFTISRDNAKNSLYLQMNSLRSEDTALFYCARDYSSAWYGYFDYWGQGTLVTVSS VL: DIQMTQSPSSLSASVGDRVTITCRASQDISNYLAWYQQKPGKVPKLLIYAASTLQSGVPSRFSGSGSGTDFTLTISSLQPQDVATYYCQNYNSVPRTFGQGTKVEIK | 2580 | 7.7 | 19.9
13 | Table 1 Line # 1 antibody (BM_Plasma_cell) (antibody, human IgG4, V domains shown, Cloned with human IgG4/human Igk constants for Kd; barcode counts are of the source cell's own IgG) VH: EVQLVESGGGLVKPGGSLRLSCAASGFTFSSYSMNWVRQAPGKGLEWVSSISSSSSYIYYADSVKGRFTISRDNAKNSLYLQMNSLRAEDTAVYYCASLAARPFWGQGTMVTVSS VL: DIQMTQSPSSVSASVGDRVTITCRASQGISSWLAWYQQKPGRAPKLLIYAASSLQSGVPSRFSGSGSGTDFTLTISSLQPEDFATYYCQQANSFPLTFGGGTKVEIK | 11200 | 6.38 | 416
14 | Table 1 Line # 35 antibody (SP_B_cell) (antibody, human IgG4, V domains shown, Cloned with human IgG4/human Igk constants for Kd; barcode counts are of the source cell's own IgG) VH: EVQLVESGGGLVKPGGSLRLSCAASGFTFSSYSMNWVRQAPGKGLEWVSSISSSSSYIYYADSVKGRFTISRDNAKNSLYLQMNSLRAEDTAVYYCARDRSSSPLENWGQGTLVTVSS VL: DIQMTQSPSSVSASVGDRVTITCRASQGISSWLAWYQQKPGKAPKLLIYAASSLQSGVPSRFSGSGSGTDFTLTISSLQPEDFATYYCQQANSFPITFGQGTRLEIK | 6710 | 7.53 | 29.3

Other lines, results leading:

Row | REGN560.L15_ab_raw [1] [counts] | negLog10Kd [2] | Kd [3] [nM] | Binder
15 | 1200 | 6.88 | 132 | Table 1 Line # 49 antibody (SP_Plasma_cell) (antibody, human IgG4, V domains shown, Cloned with human IgG4/human Igk constants for Kd; barcode counts are of the source cell's own IgG) VH: EVHLLESGGGFIQPGGSLRLSCAASGFTFSTYAMNWVRLAPGKGLEWVSTISGSGGFTSYTDSVQGRFTISRDNSKNKLYLQINNLTAEDTAVYYCAKDRRIVGATGFDYWGQGALVTVSS VL: DIQMTQSPSSLSASAGDRVTITCRASQSISSYLNWYQQKPGKAPKLLIYAASSLQSGVPSRFSGSGSGTDFTLTISSLQPEDSATYYCQQSYGFHTFGQGTRLEIK
16 | 2460 | 6.82 | 150 | Table 1 Line # 41 antibody (SP_Plasma_cell) (antibody, human IgG4, V domains shown, Cloned with human IgG4/human Igk constants for Kd; barcode counts are of the source cell's own IgG) VH: EVQLVESGGGLVQPGRSLRLSCAASGFTFDDYAMHWVRQAPGRGLEWVSGISWKGDALGYADSVKGRFTISRDNAKNSLYLQMSSLRAEDTALYYCAKDTGSYHYYYGLDVWGQGTTVTVSS VL: DIQMTQSPSSLSASVGDRVTITCRASQGIRNDLGWYQQKPGKAPERLIYAASNLQSGVPSRFSGSGSGTEFTLTISSLQPEDFATFYCLQHYSYPLTFGGGTKVEIK
17 | 818 | 6.61 | 247 | Table 1 Line # 53 antibody (SP_Plasma_cell) (antibody, human IgG4, V domains shown, Cloned with human IgG4/human Igk constants for Kd; barcode counts are of the source cell's own IgG) VH: EIQLVESGGGLVQPGRSLRLSCAASGFTFDDYAMHWVRQAPGKGLEWVSGINWNNGSLGYADSVKGRFTISRDNAKNSLYLQMNSLRTEDTALYYCVKDTGSWASYYGMDVWGHGTTVTVSS VL: DIQMTQSPSSLSASIGDRVTITCRASQGIRNDLGWYQQKPGKAPKRLIYAASSLQSGVPSRFSGSGSGTEFTLTISSLQPEDFATYYCLQHNSYPYTFGQGTKLEIK
18 | 815 | 7.87 | 13.5 | Table 1 Line # 54 antibody (SP_Plasma_cell) (antibody, human IgG4, V domains shown, Cloned with human IgG4/human Igk constants for Kd; barcode counts are of the source cell's own IgG) VH: QVQLVQSGAEVKKPGASVKVSCKASGYTFTNYGISWVRQAPGQGLEWMGWISVYNGNTNYAQKLQGRVTMTTDTSTSTAYMEVRSLRSDDTAVYYCARGVNWNYVFDYWGQGTLVTVSS VL: DIQMTQSPSSLSASVGDRVTITCRASQGIRNDLGWYQQKPGKAPKRLIYVVSSLQSGVPSRFSGSGSGTEFTLTISSLQPEDFATYYCLQHNSYPWTFGQGTKVEIK
19 | 1520 | 7.31 | 49.2 | Table 1 Line # 46 antibody (SP_Plasma_cell) (antibody, human IgG4, V domains shown, Cloned with human IgG4/human Igk constants for Kd; barcode counts are of the source cell's own IgG) VH: EVQLEASGGDLVQPGRSLRLSCAASGFIFDDFGMHWVRQAPGKGLEWVSGISWNGGHIGYADSVKGRFTISRDNAKNSLYLQMNSLRAEDTALYYCAKEHSSSWYGFFDFWGRGTLVTVSS VL: DIQMTQSPSSLSASVGDRVTITCRASQGLSNSVAWYQQKPGQIPRLLISAAASLQSGVPSRFSGSGSGTDFTLTISRLQPEDVATYYCQNYNSAPRTFGQGTNVEIK
20 | 2080 | 6.9 | 127 | Table 1 Line # 42 antibody (SP_Plasma_cell) (antibody, human IgG4, V domains shown, Cloned with human IgG4/human Igk constants for Kd; barcode counts are of the source cell's own IgG) VH: EVQLLESGGGLVQPGGSLRLSCAASGFTFISYTLSWVRQAPGKGLEWVSAISGSGGSTYYVDSVKGRFTISRDNSRNTLYLQMNSLRAEDTAVYYCAKDLGSTVYWGQGTLVTVSS VL: not shown
